Here are results for two molecules from US20130230868A1 (SIEMENS HEALTHCARE DIAGNOSTICS, published 2013).

In experiment [1] the target is recombinant gain-of-function GPIbα protein fragment (amino acids 1-285 with amino acid substitutions G233V and M239V) (human) (UniProt P07359). The experiment can be described thus: latex particle agglutination (turbidimetry, 570 nm); inhibition of VWF-GPIbα complex formation by 10 µg/ml AK2 in normal plasma pool.
Experiment [2] has the same target. The experiment can be described thus: latex particle agglutination (turbidimetry, 570 nm); inhibition of VWF-GPIbα complex formation by 20 µg/ml AK2 in normal plasma pool.
The target in experiment [3] is T1, von Willebrand factor (VWF) in plasma (human, UniProt P04275 764-2813).
T1 construct: mature; Native multimeric VWF present in plasma, not purified; The number of monomers per multimer varies; also called VWF protein
The experiment in a line: latex particle agglutination, turbidimetry at 570 nm. Here is the method:
The sample used was human citrated plasma from six different donors. 60 μl of sample were mixed with 20 μl of plasma containing VWF (91% of norm VWF, control plasma N, Siemens Healthcare Diagnostics Products GmbH, Marburg, Germany), 13 μl of a solution containing a recombinant gain-of-function GPIbα protein fragment (amino acids 1-285 with amino acid substitutions G233V and M239V; 8.4 μg/ml) and 70 μl of an NaCl buffer and incubated for two minutes. Subsequently, 40 μl of a latex particle reagent containing latex particles coated with anti-GPIbα antibodies were added to the assay mix.
Absorbance at 570 nm of the reaction mixture was measured turbidimetrically. Binding of VWF to GPIbα and binding of the GPIbα protein to the latex particles result in particle agglutination. This agglutination leads to an increase in absorbance, the maximum rate of which is determined (mU/min).

For the molecule anti-GPIb antibody AK2, the results for the Rate of agglutination in experiment [1] and in experiment [2] were 266 mU/min and 133 mU/min, respectively.

B1: recombinant gain-of-function GPIbα protein fragment (amino acids 1-285 with amino acid substitutions G233V and M239V) (receptor)
chain: HPICEVSKVASHLEVNCDKRNLTALPPDLPKDTTILHLSENLLYTFSLATLMPYTRLTQLNLDRCELTKLQVDGTLPVLGTLDLSHNQLQSLPLLGQTLPALTVLDVSFNRLTSLPLGALRGLGELQELYLKGNELKTLPPGLLTPTPKLEKLSLANNNLTELPAGLLNGLENLDTLLLQENSLYTIPKGFFGSHLLPFAFLHGNPWLCNCEILYFRRWLQDNAENVYVWKQVVDVKAVTSNVASVQCDNSDKFPVYKYPGKGCPTLGDEGDTDLYDYYPEEDTE
In the case of B1, in experiment [3], the binding result was “binds”.
